The text below walks through data of paper PMC8383266 (Biochemistry, 2021).

In data set [1] the test system is CC1(C)S[C@@H]2[C@H](NC(=O)[C@H](N)c3ccccc3)C(=O)N2[C@H]1C(=O)O. In words: purified protein. Conditions: pH 6.4; 25.0 °C.
Data set [2] concerns O=C(Cc1cccs1)N[C@@H]1C(=O)N2C(C(=O)O)=C(/C=C/c3ccc([N+](=O)[O-])cc3[N+](=O)[O-])CS[C@H]12. In words: purified protein. To be noted: pH 6.4; 25.0 °C.

One may read the kcat as the maximal rate divided by the concentration of active sites. Broadly, the kcat/Km is the second-order rate constant that governs catalysis at low substrate concentration. As a reminder, the Km is the concentration of substrate that gives half-maximal velocity. As to (Mycobacterium tuberculosis H37Rv), in data set [1], the turnover number (kcat) is 2.1 s⁻¹ and the kcat/Km worked out at 17000 M⁻¹ s⁻¹. Besides, in data set [2], the Km was determined as 560 µM, the kcat turned out to be 220 s⁻¹ and the kcat/Km turned out to be 390000 M⁻¹ s⁻¹.
